Patent publication US20190248900A1 (Y BIOLOGICS, published 2019)
Numbering of substitutions follows the chain as printed.

Legend:
Test in all cases: ELISA
[1] = target: TNF (Homo sapiens (Human), UniProt P01375 77-233)
[2] = target: T1, TMED1 (Homo sapiens (Human), UniProt Q13445 24-194)
T1 sequence: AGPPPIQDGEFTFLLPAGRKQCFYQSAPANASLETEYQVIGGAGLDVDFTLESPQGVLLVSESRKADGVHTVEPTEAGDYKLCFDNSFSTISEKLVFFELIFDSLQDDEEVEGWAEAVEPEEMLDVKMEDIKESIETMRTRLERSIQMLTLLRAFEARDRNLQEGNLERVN

[3] = target: T2, OSTM1 (Homo sapiens (Human), UniProt Q86WC4 32-284)
T2 sequence: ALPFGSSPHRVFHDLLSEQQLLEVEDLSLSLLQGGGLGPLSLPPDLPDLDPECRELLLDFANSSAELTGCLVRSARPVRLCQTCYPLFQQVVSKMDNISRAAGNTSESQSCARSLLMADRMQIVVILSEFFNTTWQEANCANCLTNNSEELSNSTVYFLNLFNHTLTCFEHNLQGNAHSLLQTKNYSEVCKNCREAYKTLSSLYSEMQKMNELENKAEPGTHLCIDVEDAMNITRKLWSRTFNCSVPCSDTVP

[4] = target: CDCP1 (Homo sapiens (Human), UniProt Q9H5V8 30-667)
[5] = target: T3, CREG1 (Homo sapiens (Human), UniProt O75629 32-220)
T3 sequence: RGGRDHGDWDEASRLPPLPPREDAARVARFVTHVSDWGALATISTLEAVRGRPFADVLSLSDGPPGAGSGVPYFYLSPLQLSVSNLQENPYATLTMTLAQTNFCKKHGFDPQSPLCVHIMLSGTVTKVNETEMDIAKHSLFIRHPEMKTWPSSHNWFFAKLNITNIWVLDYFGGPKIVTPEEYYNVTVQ

[6] = target: T4, SEMA5A (Homo sapiens (Human), UniProt Q13591 23-968)
T4 sequence: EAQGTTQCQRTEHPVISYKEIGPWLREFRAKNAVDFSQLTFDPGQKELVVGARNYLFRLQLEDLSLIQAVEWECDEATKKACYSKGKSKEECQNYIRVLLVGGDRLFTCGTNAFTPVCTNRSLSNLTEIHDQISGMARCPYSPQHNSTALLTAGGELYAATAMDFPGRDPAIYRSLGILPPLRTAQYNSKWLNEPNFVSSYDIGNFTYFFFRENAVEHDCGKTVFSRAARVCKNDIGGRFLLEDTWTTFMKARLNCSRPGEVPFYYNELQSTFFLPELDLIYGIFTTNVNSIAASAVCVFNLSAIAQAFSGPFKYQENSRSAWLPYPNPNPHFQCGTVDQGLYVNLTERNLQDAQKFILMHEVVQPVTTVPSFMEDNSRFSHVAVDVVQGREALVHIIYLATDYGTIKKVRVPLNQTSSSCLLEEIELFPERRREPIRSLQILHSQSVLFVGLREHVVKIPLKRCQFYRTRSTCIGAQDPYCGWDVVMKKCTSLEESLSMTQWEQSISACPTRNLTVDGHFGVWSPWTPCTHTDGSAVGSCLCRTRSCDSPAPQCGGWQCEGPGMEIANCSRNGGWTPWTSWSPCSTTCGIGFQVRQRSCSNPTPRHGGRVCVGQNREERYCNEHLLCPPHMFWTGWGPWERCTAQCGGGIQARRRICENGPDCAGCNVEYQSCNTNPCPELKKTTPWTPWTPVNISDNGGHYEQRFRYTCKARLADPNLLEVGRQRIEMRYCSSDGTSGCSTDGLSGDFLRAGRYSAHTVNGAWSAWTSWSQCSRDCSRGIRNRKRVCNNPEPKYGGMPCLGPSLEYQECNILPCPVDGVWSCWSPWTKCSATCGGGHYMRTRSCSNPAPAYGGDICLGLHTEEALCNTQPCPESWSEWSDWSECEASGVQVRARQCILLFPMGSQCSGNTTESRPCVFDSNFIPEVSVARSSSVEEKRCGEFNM

[7] = target: T5, CD209 (Homo sapiens (Human), UniProt Q9NNX6 59-404)
T5 sequence: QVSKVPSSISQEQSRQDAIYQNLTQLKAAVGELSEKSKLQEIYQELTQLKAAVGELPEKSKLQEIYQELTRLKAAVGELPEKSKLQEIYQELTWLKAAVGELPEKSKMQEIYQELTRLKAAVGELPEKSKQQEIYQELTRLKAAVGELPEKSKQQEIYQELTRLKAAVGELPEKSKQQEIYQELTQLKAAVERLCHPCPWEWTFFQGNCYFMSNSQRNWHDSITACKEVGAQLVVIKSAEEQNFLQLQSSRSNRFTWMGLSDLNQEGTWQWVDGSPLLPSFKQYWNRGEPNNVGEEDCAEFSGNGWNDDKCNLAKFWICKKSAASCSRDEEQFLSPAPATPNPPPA

[8] = target: T6, SPARC (Homo sapiens (Human), UniProt P09486 18-303)
T6 sequence: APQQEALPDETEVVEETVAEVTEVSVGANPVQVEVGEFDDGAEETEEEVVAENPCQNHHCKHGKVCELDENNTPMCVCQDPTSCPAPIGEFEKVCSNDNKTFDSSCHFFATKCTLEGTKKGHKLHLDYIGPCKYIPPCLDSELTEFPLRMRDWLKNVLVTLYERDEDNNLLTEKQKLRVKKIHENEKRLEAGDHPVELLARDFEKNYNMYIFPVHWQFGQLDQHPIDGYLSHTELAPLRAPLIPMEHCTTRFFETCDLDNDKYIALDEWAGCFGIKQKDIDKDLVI

[9] = target: T7, SPOCK2 (Homo sapiens (Human), UniProt Q92563 23-424)
T7 sequence: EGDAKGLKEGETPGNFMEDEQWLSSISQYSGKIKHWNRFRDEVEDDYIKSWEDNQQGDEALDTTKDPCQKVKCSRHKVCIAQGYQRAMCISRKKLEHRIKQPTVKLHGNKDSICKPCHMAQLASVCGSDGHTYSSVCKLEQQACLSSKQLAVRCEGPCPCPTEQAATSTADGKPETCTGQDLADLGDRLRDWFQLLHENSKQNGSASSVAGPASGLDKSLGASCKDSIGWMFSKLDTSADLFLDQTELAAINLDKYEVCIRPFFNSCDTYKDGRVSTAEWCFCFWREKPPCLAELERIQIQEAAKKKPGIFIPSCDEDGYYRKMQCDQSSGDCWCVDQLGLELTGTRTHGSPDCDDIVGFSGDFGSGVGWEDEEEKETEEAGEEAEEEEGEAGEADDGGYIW

Measured: binding result

Chain of TNF (P01375 77-233 limits assumed): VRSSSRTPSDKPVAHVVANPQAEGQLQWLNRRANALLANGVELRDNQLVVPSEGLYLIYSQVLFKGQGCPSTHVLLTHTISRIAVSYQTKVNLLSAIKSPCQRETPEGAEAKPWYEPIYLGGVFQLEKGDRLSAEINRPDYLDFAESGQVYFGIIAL
Chain of CDCP1 (Q9H5V8 30-667 limits assumed): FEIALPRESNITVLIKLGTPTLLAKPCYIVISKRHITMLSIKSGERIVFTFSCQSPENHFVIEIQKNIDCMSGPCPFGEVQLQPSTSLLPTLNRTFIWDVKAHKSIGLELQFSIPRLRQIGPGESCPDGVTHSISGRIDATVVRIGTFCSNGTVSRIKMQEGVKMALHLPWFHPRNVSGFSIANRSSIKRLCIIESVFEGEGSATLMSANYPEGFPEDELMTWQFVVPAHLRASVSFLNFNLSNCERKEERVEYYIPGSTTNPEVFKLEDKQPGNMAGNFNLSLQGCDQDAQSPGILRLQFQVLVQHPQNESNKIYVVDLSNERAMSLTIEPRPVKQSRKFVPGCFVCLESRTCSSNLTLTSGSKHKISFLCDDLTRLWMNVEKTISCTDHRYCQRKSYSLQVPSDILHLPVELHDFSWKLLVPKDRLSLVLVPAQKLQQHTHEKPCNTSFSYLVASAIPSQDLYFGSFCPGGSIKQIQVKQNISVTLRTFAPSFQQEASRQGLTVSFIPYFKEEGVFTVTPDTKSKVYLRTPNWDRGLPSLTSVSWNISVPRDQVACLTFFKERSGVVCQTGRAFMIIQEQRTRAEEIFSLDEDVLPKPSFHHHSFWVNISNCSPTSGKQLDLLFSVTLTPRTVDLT

B1: PD1-41C9 (antibody, V domains shown)
VH: QMQLVESGGGVVQPGRSLRLSCAASGFTFSSYAMHWVRQAPGKGLEWVAVISYDGSNKYYADSVKGRFTISRDNSKNTLYLQMNRLRSEDTAVYYCTTTTFDSWGQGTLITVSS
VL: DIVMTQTPLSLPVTPGEAASISCRSSQSLLDSEDGNTYLDWYLQKPGQSPQLLIYTLSHRASGVPDRFSGSGSGTDFTLKISRVAAEDVGLYYCLQRMGFPYTFGQGTKLDIK
notes: scFv-phage in the screening ELISA; whole IgG in the other assays
no binding (tested: 1 ug/ml): all assays above

B2: PD1-49A2 (antibody, V domains shown)
VH: B1 VH with M2V, S75P, R85S, S88A, Q106R, I110V
VL: B1 VL with T7S, A18P, L30F, E33D, A85E, L91I, L110V, D111E
notes: scFv-phage in the screening ELISA; whole IgG in the other assays; also called Parent 49A2
no binding (tested: 1 ug/ml): all assays above

B3: PD1-45D6 (antibody, V domains shown)
VH: QVQLVESGGGVVQPGRSLRLSCAASGFTFSSYAMHWVRQVPGKGLEWVAVISYDGNDKYYADSVKGRFTISRDNSKNTLYLQMNSLRAEDTAVYYCVPTTFEYWGQGSQVTVSS
VL: DIVMTQTPLSLPVTPGEAASISCRSSQSLLDSDDGKTYLDWYLQKPGQSPQLLIYTLSYRASGVPDRFSGSGSGTEFNLRISRVEAEDVGIYYCMQRVEFPFTFGQGTKLDIK
notes: as for B1
no binding (tested: 1 ug/ml): all assays above
